Assay results published in patent publication US10613105 (FRAUNHOFER GESELLSCHAFT ZUR FORDERUNG DER ANGEWANDTEN …, dated 2020).

target: TLR4 receptor complex expressed in the NIH 3T3 pNifty SEAP TLR4/CD14 reporter cell line; experiment: cell-based or functional assay
Sequence (O00206 24-839, chain 1 of 2): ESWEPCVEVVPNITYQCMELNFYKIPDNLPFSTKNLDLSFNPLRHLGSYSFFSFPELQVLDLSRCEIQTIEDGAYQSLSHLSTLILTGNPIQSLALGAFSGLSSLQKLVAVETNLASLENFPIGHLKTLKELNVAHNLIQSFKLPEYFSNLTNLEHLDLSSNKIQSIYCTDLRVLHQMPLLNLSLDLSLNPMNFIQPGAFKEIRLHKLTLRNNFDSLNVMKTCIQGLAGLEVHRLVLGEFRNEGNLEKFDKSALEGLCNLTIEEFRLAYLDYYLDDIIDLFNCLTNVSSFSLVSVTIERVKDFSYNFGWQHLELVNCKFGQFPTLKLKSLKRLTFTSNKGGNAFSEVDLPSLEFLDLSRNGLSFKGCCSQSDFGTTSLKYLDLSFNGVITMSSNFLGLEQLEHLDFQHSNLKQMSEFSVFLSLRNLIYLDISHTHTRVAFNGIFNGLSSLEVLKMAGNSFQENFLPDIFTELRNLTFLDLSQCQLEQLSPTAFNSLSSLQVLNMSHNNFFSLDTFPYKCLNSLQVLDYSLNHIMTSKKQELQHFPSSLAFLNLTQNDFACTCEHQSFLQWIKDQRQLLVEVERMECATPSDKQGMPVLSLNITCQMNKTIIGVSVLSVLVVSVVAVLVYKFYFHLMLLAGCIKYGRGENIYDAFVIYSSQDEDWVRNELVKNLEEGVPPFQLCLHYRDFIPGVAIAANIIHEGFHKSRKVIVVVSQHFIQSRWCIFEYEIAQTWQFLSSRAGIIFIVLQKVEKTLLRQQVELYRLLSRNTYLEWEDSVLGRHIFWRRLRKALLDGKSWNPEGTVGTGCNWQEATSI
Sequence (P08571 20-345, chain 2 of 2, further chain): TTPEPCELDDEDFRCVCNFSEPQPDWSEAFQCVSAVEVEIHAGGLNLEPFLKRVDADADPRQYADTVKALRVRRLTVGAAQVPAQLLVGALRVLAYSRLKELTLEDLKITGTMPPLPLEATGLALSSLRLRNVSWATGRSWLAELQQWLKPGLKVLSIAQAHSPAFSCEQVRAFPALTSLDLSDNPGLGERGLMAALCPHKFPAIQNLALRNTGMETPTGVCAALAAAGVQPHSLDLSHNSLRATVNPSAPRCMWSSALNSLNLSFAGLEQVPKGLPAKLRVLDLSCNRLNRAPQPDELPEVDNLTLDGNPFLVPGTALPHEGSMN

Row | IC50 in the PAMP assay (SEAP reporter, NIH 3T3 pNifty SEAP TLR4/CD14 cells) [mM] | Binder
1 | > 200 | KRKEVICRGSDDDYSFCRAL [KRKEVICRGSDDDYSFCRAL peptide (SEQ ID NO: 4)]
2 | > 200 | KGETVNTTISFSFKGIKFSK [KGETVNTTISFSFKGIKFSK peptide (SEQ ID NO: 1)]

Further lines, the binder ahead of its results:

Row | Binder | IC50 in the PAMP assay (SEAP reporter, NIH 3T3 pNifty SEAP TLR4/CD14 cells) [mM]
3 | KMQYPISINVNPCIELKGSK [KMQYPISINVNPCIELKGSK peptide (SEQ ID NO: 2)] | > 200
4 | GLLHIFYIPRRDLKQLYFNL [GLLHIFYIPRRDLKQLYFNL peptide (SEQ ID NO: 3)] | > 200
